The DeepSol protein solubility set

assay: soluble on expression in E. coli; label from the status in PepcDB or PDB records

Soluble on expression in E. coli, not soluble:
MGSDKIHHHHHHMLLTRNEPFTAEKIQAKADILELVQFERFCRDNALWDAMETCFTKDSNVKISWFQGTGHGFIEASKKMTNPAPHKIYNTQVWIKNDRAVAIMQATIQTRTIINGVEMELNSDAKLVTRVERIDGKWYINAFEGVYEKDSLMPVVPSKNADVPAELLANFRKSYACLALSLTLNGYEIDNNLPGIDRPEQVTQFFKEADEWLLQ
MGSDKIHHHHHHMLPKWDNSYSVHNAKIDEQHKKLFKLAAKVEVVSDRSVSKNEVKELLAEFFNYMKDHFNDEEKYMQLIGYPNLEEHRKIHKEIIQTMINLIKDIKSTNDLKEKLYIVAKKWLLEHILYEDMKVEKWRSSSLSTDDGGDVSFEAAEDEDNEHPQFYLYTCNCPGKIHDVPYSIHQKIELQGRKFTCKTCKQAIKFYKKYS
MGSDKIHHHHHHMLPKYEIIKRDIIEKIESGEFSTGEKVYSEGDLKRKYNVSNTTVVKALNDLVNEGYLIRRQGEGTFVRKNLKHRKVFFSEKLSMSNNEKQKSVEETITLVSEEFTDKEIAQILGDKSGSKALLKLTQIALTNDFPWKIQNRYLFADKLRDDSVKRLIEGASLSDELGLQGNMANLPMTMEVSTILLTKDSDELEPLRIIRKSFGEEDSFSLFNIKRLIRGNDGVPIEYSQSFILSDFYQIEIISE
MGSDKIHHHHHHMLPLVKLIRGQDNTIVEADLVELWQKHVDDYANKWKEQLKLHGQSDKFWDWEFKLEFIINRQANREGFAIEYEDETQGLMLIETQMHGSRLVEGKRLVYIDGIATAPWNRAYIQRPPKLKGVGTAFLAFARTRSLELGYEGRVGLHSLPGVEEFYDNQGMIDVGEDEDYDDLVYFEYGVFRSPV
MGSDKIHHHHHHMLPNRLLANRAYSTAINRFRVVEVGARDGLQAEKKFVPTEIKVELIDRLSECGFQTVETTSFVSPKWVPQLADHNEIVKKHRRFEGVSYPVLVPNAAGLKNALATGVVEEIAVFGAASDAFSLKNVNSNVEDSLKKLMEVTKIALENNIRVRGYVSVVVGCPYQGAVQPEMVARVAEKLLESGCYEVSLGDTIGVGTVKTVSKMLDTVLKSVPAEKLAVHFHDTYGQALANVLISIEKGIRSADSSIAGLGGCPYAKGATGNLATEDLLYFLKGNGFETGVNLDKVVETAKWFNEAAGYDKWSRVGAAMMAKKSKSCC
MGSDKIHHHHHHMLPQSFSYKVIRHNMITVAHLINNIVQSGPVIVMRDIIRHMDRDKFHPIVICLRHEEKEDPIVKELRAIDVKCIYLNYSLLSLELQTGRIARKVLSVLRNEKAHILHSHGYHPDLIASHLSRNITSLSTLHNISKDDFTFLKGNLLGSYMNFRYLRSLSKIGHYVAISRAVADYYASHVNKAKERIRIIHNGVDLSFFQIPDEDHQKQLRHRLGLPVSGKIFLVVGRLFSRKDPLIIIRAFKFLLESQKLSGDFYLFFLGDGPLSDACQKEIGDKTHNIRLLGFQKNVHEYMMAADYAITASHSEGFGLNYLEATACGKPVVATDLPPFREICGTGFQDNELFFSVGNQKELEDCILKSLGHTFNPQKVSDIRHHFSAETMSVQYQNYYTELSAPLK
MGSDKIHHHHHHMLQFQPPGFGHKLIHTSLGAMVYYTQTNTPWAFADTEDLPPLLFLHNFGGGASAYEWSKVYPAFASNYHILAPDLIGWGESAHPVRDYKIRDYLSTIAEFIIETCRQPVTVVASSLTAAFAIRLAIVQPNLFKALFLVSPSGFDDFGQGAGRRLPLSVINTPLLDNFIYMLGAENEIAVRNFLQSFLFAKSERVSQEIVDAYLTSAQQPNAKFSALAFLRGDLYFDLSLYIQQLTIPTVMFWGEKAQFTNIKLGQRLANLNQRAIQDFYAIADAGILPHLEIPEVVIGLLQRYLR
MGSDKIHHHHHHMLQNRERTYSLPQPFYSDDRLFEIDMQEIFHKEWLIAGMTCEIPTKGNFLTLQIGKNPILVVRGPDGAVNAFHNVCRHRGSRLCTAEKGKVAKLVCHYHQWTYELDGRLLYAGTEMGDDFDMKQFGLKPVHVKTAGGYIFISLAENPPAIDEFLATLKHYMEPYDMENTKVAVQTTLMEKANWKLVLENNRECYHCGGAHPELLKTLLEWDDVTDPRADQAFKDHVAASAAAWDAEKIPYAHASFGLRNRIVRMPLLKGTVSMTMDGKVGCKKLMGRIQNPELGSMRILHLPHSWNHCMGDHIIVFTVWPISAQETMVSTKWIVHKDAVEGVDYDVARMRQVWDATNDQDRRLAEENQRGINSTAYQPGPYSKTYEFGVVNFIDWYSARMLENLGAEPAPYLKGVAVNHE
MGSDKIHHHHHHMLSGSTQLMPSTVGLASAHLQYSASFFPTTAVYSLLFPDKSIIIGTVALGYAQTRPQDLPVTHILTKGNRTFKLSIASTPEQLEKGLKFRSSLNGDSGMLFNLGGEIYNVPFWMYKVNFPLDIFYLKDNVVTTAVYNAKPCYKNPCPIYKGKVANQVLELATGTANIKVGDRLNIQPLSSAKE
MGSDKIHHHHHHMLSMKNIVGKPQTIKKVNEDLIKNIIKNEGPITKPEISSITELSLATVNKIVEQLALKNEVKVSGLSESTGGRRAQLFEINANLEHIIALYYYRNCCIGVVANLLGEIIYQEEFNIRMDTYENVNQDTFFVIDTLIKKEKGNNIRAIGIGVPGVVKKGVVKNIPTIKSWEGINLENLIKSKYNTKVFIENDTNITTIGIYQKQYKDKYKNMALMYLEDGIGSGIVINGELYLGSTNFAGELSYLNIEFGKYNSNNLNLEDYIMSLRKRYLESKDNKFKKEILSIISNFIRTLVCVLNPQAMIIQCSILTKSDMEFIEKDVSNNVGEENFPKLIKVESLREGSINGVISMCLKETDYQYSLSNKKGGY
MGSDKIHHHHHHMLTGVEVRHFKSWRASEWIACAPITMFFGSNSSGKTSLLQLLLLLKQTTESSDRQQVLNLGDTHSPVDAGTFPDLLHRHEQTQSLFWRIAWQLPPDLTIALPGRKNGDHLPARELAFQARIGWHQHSDSTPNLQAQASHGRAVVEEMAYQLAGYTLGMRLRDRVKQEYELYSDPAGLFSRPSRKSPRLPSPVKCYGFPDEVQKYYKHVSFLTDLEFALEQLCRRMTYLGPLREYPRRQYTWSGTPPTGVGYRGERVIEALLASRLSSDVASGTDSDQPSALETRVAEWLKTMELIADFAVRAVAPGASLFQVWVRRAQQAPEVLMTDVGFGISQMLPVITLCYYVPKGSIVILEHPEIHLHPRAQADLADVLIDAVKTRGVQIIVESHSEHLLRRLQRRIAEDVLPSDQAALYVCTTDAEGVSHIQRLHLDPYGNITNWPKDFFGDEMGDLLAMSEAAMKRQLGQV
MGSDKIHHHHHHMLTSSWIKQLPLTAITQVTPVGGGDVNQAYRIDTATKPYFLLVQPGYPADFYAGEIAGLKAFDEAQILAPRVIANGQIEGDGFLLLSFLTSGNGSQRDLGRLVAHLHQHHEPNGRFGFDYPYAGTSVSFTNTWTDSWADLFIHQRLDKLAAHLLKKELWQADDEATFQQVRTIISKTLAHHHSDASLLHGDLWGGNYMFTADGQPALIDPAAVYGDRELDIGVTTVFGGFTQDFYTGYQEVYPLDAGYHFRLDFYRLYYLMVHLDKFGMGYAGSVAAVMNQILDHGLTE
MGSDKIHHHHHHMLTTVKEKIEALNSEVSYRVKLWQYAPNLPKVESRDRLIVDTLKSEGVYITTLQELGLPSTAQLLKASHTLLPGMGQGSYAESAQNPPEIYTVTHIPDFYNWGSESRLLNILENYIGLPVAYHGVQIRKDFVNANQFSTMLWHRDSEDRRIVKIIIYLSDVEEKHGPFEYVPASFTSIDSLNFYRLYYKIHKSGINDEALNKIVPKSAWKSCTGPAGSVIIADTQRLLHHGTVRTEERSTLFYAYTANPAKRPGLCTQYWDDTFPKPNYS
MGSDKIHHHHHHMLVVPAIDLFRGKVARMIKGRKENTIFYEKDPVELVEKLIEEGFTLIHVVDLSNAIENSGENLPVLEKLSEFAEHIQIGGGIRSLDYAEKLRKLGYRRQIVSSKVLEDPSFLKSLREIDVEPVFSLDTRGGRVAFKGWLAEEEIDPVSLLKRLKEYGLEEIVHTEIEKDGTLQEHDFSLTKKIAIEAEVKVLAAGGISSENSLKTAQKVHTETNGLLKGVIVGRAFLEGILTVEVMKRYAR
MGSDKIHHHHHHMMDYFSMTSHQDTKPSAQTSQWPVPTDSVRYVIPEPIVRQLAHHPLTRELYPLAFGHYRRAAGHHMHREHHRDNLLIYCTDGKAFLNVAGEPYTVTAGDLLLLPAGVSHRYTADPDNPWTIHWVHYTGPLAEDFGQYMGFDDSTRIRHLGRQPRLLVDFNGLLSVRQTGFRARGLIHASNRLRQLLAAVPINADETSQARQAELDSLHSFMREHLEERLTLNQLAELSGLSPAHFATRYREQTGTSPIQHFLHLKVERACELLDTTSQSFADISRQLGYDDAYYFSRLFKKVMGKSPTDYRHTARH
MGSDKIHHHHHHMMGKAALMDAIAGTNRGLLATEAQKQAILAAIANLEDFNPTPRPVEAGNLLDGNWRLLYTTSKALLNLDRLPFCKLGQIYQCIRVETTSVYNIAEIYGLPYLEGLVSVAAKFEPVSGRRVQVKFERSIIGLQRLIEYNSPVTFIQQIEAGKKFAGIDFAIKSDKQQGWLDITYIDNDLRIGRGNEGSVFILSKT
MGSDKIHHHHHHMMKIPKKIHQIYTKGIHDLPEEILVSVGKLKDLNPGWEYFFYDEKSIIGYIHKHYGKEMLNIYLSINPKYGVAKADLFRYLLIYIEGGVYLDIKSSCSIPLDQVIKDDCEILLCSWDNKECGCDRNMGIHKELGFLKCGEYQQWNIISASGSPYIKSAIDEVIHRLKTYKPWIYGVGMKGVLNTTGPVPFSVGIERINKTEFFHHEENYRNIGLKYRNVTEETIRKLNKNHYSKLKDSIVTLEGKDKLYYKLWLLFFYPLQRLKKNIINESKFVIRKMKRISRKTSQ
MGSDKIHHHHHHMMRVEHLAYQFSRNGQPFFKDVSFQLKSPGVNFLIGQNGAGKTTLADIITGLRPAQGELDLPKAAIYLNQQLPLLSSIRVRDVAQLVLGIEHGRLRLTTEQLQQLIDTQAYQFLAPLWDQHYGQLSGGQRKLVQLLLFLQVDRELIVLDEPTAAVDRENVQLLFQVMQAHPERTYLMITHDVRDLHAFTDYQVLWLNDRQVTTLSKRTFEAASAQADFVALFKTQ
MGSDKIHHHHHHMMSDEKNLGVSQKLVSPSRSTSSCSSKQGSRQDSWEVVEGLRGEMNYTQEPPVQKGFLLKKRKWPLKGWHKRFFYLDKGILKYAKSQTDIEREKLHGCIDVGLSVMSVKKSSKCIDLDTEEHIYHLKVKSEEVFDEWVSKLRHHRMYRQNEIAMFPHEVNHFFSGSTITDSSSGVFDSISSRKRSSISKQNLFQTGSNVSFSCGGETRVPLWLQSSEDMEKCSKDLAHCHAYLVEMSQLLQSMDVLHRTYSAPAINAIQGGSFESPKKEKRSHRRWRSRAIGKDAKGTLQVPKPFSGPVRLHSSNPNLSTLDFGEEKNYSDGSETSSEFSKMQEDLCHIAHKVYFTLRSAFNIMSAEREKLKQLMEQDASSSPSAQVIGLKNALSSALAQNTDLKERLRRIHAESLLLDSPAVAKSGDNLAEENSRDENRALVHQLSNESRLSITDSLSEFFDAQEVLLSPSSSENEISDDDSYVSDISDNLSLDNLSNDLDNERQTLGPVLDSGREAKSRRRTCLPAPCPSSSNISLWNILRNNIGKDLSKVAMPVELNEPLNTLQRLCEELEYSELLDKAAQIPSPLERMVYVAAFAISAYASSYYRAGSKPFNPVLGETYECIREDKGFQFFSEQVSHHPPISACHAESRNFVFWQDVRWKNKFWGKSMEIVPIGTTHVTLPVFGDHFEWNKVTSCIHNILSGQRWIEHYGEIVIKNLHDDSCYCKVNFIKAKYWSTNAHEIEGTVFDRSGKAVHRLFGKWHESIYCGGGSSSACVWRANPMPKGYEQYYSFTQFALELNEMDPSSKSLLPPTDTRFRPDQRFLEEGNLEEAEIQKQRIEQLQRERRRVLEENHVEHQPRFFRKSDDDSWVSNGTYLELRKDLGFSKLDHPVLW
